# T1: CD20 (human) (UniProt P11836)
# T1 sequence (looked up): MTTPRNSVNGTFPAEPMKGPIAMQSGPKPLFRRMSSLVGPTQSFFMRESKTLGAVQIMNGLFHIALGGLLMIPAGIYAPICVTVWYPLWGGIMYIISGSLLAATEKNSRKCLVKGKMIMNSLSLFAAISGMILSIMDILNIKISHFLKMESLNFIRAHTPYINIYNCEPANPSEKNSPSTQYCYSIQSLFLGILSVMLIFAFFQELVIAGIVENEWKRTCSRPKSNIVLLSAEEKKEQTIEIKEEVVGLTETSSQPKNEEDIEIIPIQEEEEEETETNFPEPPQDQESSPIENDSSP
# B1: anti-CD20 Leu-16 monoclonal antibody (antibody, from another filing, V domains shown)
# VH: EVQLQQSGAELVKPGASVKMSCKASGYTFTSYNMHWVKQTPGQGLEWIGAIYPGNGDTSYNQKFKGKATLTADKSSSTAYMQLSSLTSEDSADYYCARSNYYGSSYWFFDVWGAGTTVTVSS
# VL: DIVLTQSPAILSASPGEKVTMTCRASSSVNYMDWYQKKPGSSPKPWIYATSNLASGVPARFSGSGSGTSYSLTISRVEAEDAATYYCQQWSFNPPTFGGGTKLEIK
# Biological target: T1, CD20 (human)
# Test: cell-based or functional assay
binder,measurement,value
B1,decrease of IL-2 concentration in supernatants of Jurkat transfectants co-cultured with LCL,60%
